Results: article PMC4238996 (PLoS Neglected Tropical Diseases, 2014)
Positions count from the first letter of the chain named.

T1: M. tuberculosis Rv0020c (M. tuberculosis H37Rv, UniProt P71590 1-527)
T1 sequence: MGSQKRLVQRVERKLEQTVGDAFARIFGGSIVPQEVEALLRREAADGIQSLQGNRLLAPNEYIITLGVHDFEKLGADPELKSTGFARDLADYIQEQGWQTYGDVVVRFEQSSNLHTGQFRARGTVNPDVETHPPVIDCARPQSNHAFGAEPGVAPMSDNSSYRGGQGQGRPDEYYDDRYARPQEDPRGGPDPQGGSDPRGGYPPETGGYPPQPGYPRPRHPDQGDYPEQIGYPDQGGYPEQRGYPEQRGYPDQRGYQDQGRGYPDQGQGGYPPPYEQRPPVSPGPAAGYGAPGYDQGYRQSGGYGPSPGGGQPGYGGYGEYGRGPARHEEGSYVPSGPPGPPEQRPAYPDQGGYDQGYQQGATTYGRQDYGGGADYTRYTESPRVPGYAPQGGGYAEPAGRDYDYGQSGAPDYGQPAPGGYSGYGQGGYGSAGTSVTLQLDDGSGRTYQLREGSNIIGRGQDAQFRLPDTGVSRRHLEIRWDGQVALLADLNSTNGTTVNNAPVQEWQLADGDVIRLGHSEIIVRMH

B1: MBP-tagged MupDivIVA-P (Mup012c residues 1-87, phosphorylated by co-expression with PknQ) (natural protein, M. ulcerans Agy99 (plasmid pMUM001), UniProt Q6MZ92 1-87, looked up)
chain: MSHSELLDPALPKSPFGKQGYRYDDVDVFLRLIADELQGSDLSESDIHSITFRCAAPLTRGYDTESVDRFLDRIAETIARGHGDEGQ
notes: also called phosphorylated MupDivIVA
B2: MBP-tagged MupDivIVA S43/45/49A triple mutant (natural protein)
chain: B1 chain with S43A, S45A, S49A

Biological target: T1, M. tuberculosis Rv0020c
Experiment: ELISA
Conditions: both partners purified

| Binder | binding result |
| --- | --- |
| B1 | binds |
| B2 | binds |
